Laboratory results published in the DeepSol protein solubility set.

assay: soluble on expression in E. coli; label from the status in PepcDB or PDB records

| Sequence | soluble on expression in E. coli |
| --- | --- |
| MGSIILKAFDESTEINGDSLDLGEIQLTPYKGRLTLELLKKPAHTSQEEPGLEQENLYNYTISIYNKTKQAKIKNFNIKPPYIFLNDTNIETGDVIEVTFTHKKDYTLPATIELTLDRLMNASGQAVAKENGKGMASIQSGNQRCELMVYNSDKKFIESCSMNREGKIISNPLKEGVYTFVFISSNNYLWRLNTLEQFEEIGLKEGIHFVKKEVEIKNGEIKDLGLIVVPELNEKELFFTDPDVASYAVVSENNRIGKDIVLRAKYSFRKPIESQTVKLLFRVPDQTFYVKDTLTIDGELVDSVNVSGSFIEVTTTKTEGVVRFNIRPTEAVVCYSNAYVEFKAEGRTVREPLGVVNEVVPYLTIGAPNVTSLEKVYVTGQTLPNLEVKIYDEGSLVGVTKANSTGAWNFQVSLGKDKSYSVHNLSARIEYNDQVIESETLEVIYKKSVPEIEKVTMIHSNQSLILYKNGEIVPKGVYTYVPSQSYTFIVDFVGDSAEEIENLCIVSNRNGEERKLDAKYDPQSKSWIATGSFGYNHVPGSFTVEYNLKKKRLIKEDGELNLEVLEQISTFADQFLYELKKENVMVGLLDENEIGFMLKEDTGGIAIVTIVIGDQPIEREKYEKMGYLFKEIDGKLGAVLLIKDETENKIFTSKVRLASNKTEDSVKSEDDDESSQKETPLVTKDERISMAATIIGELGNIAGSGKVVEAIDFISGIGTAVNTIAFTPANAVTDMGYVQKKLQESENISSEDKERLRDDLFLASGVYNFTVNANFIASLMDGHTRNGTMHKIIDIVIDKYDQYSLGDKLWEDIFGKNEDDRESGKSTKSGKGSSIKLPLQEQKTLVDPSGYVYETVPDNRITDATVTVYYKDENGEMILWNAEEFGQKNPLLTDENGFYAWDVPEGMWQVKVEKEGYETAYSEILPVPPVQTNVNIPLVSYEPPKVGHIYAYPEYIEIAFSKYVKHATLDSESIQLKQGENKVNIKIVYEDEEGNYSKKIKLIPAEKTSFEGKYTLNISKSITSYAGVAMQKAEIRDIEIVAEPKSIEILDKVEIELRKTVAIEIRVLPEEAAKGKKIIVTSGMEEIVSAEDVLLDERGRGKLKLKGNLPGTVDIDLRLEGSAVEKKIQATVKFPEDNGEIIEPPVVLNGDLNRNGIVNDEDYILLKNYLLRGNKLVIDLNVADVNKDGKVNSTDCLFLKKYILGLITI | not soluble |
| GPGSMRNYNNFNRVWKAPRRPFEKERLDREMKLCGQYGLRCKREIWRVNMTLSKMRRTARLLLTLPENHPRRLLEGSAIMRRCHEYGFLDEEKDKLDYVLSLTVPDILERRLQTIVFKAGLAKSVHHARVLIQQRHIAVAKQIVTIPSFIVRVSSERHIAFADASPFGNGRAGRVKRVRAKAAKRHAGGGDDDE | not soluble |
| PKYQSTAALLVNRSQDDTAATALNDQQADVGLIYTYKDLITRPVILNKVAKELKSTYPTLTSTALAKMITVSSTTNSQIFSIAVRSTSSQEAKDIANETASVFKNEAVKLMGKTISNVTIVSSGLKNNTPVFPNTK | not soluble |
| MSDITTKSTKQTESLVCGEFKALGPAPYYVGDEIIVMRCAETINEIFSDWTKRANLDENKYTPFDVNAPIELPRRTDMLKSYNLDPPINETGKIASKMIARELCDRHAIPSVIFCSPDFASVETAHLIKSYIGEKCGAIRIEPELSTLHKSAHVFFGPNHFTSLGYGIDEKNPLHAVSDGVSLSDLVNRIKRAFYELTSKVDNALIIVDSLSMMIISSLFHNVYIRNDSSVDLERLRSLASFPSLSNFTAYRVGGQTGVKTYDLTSTCLRPLTFTGFSNEIDLE | not soluble |
| MPNSEPASLLELFNSIATQGELVRSLKAGNASKDEIDSAVKMLVSLKMSYKAAAGEDYKADCPPGNPAPTSNHGPDATEAEEDFVDPWTVQTSSAKGIDYDKLIVRFGSSKIDKELINRIERATGQRPHHFLRRGIFFSHRDMNQVLDAYENKKPFYLYTGRGPSSEAMHVGHLIPFIFTKWLQDVFNVPLVIQMTDDEKYLWKDLTLDQAYGDAVENAKDIIACGFDINKTFIFSDLDYMGMSSGFYKNVVKIQKHVTFNQVKGIFGFTDSDCIGKISFPAIQAAPSFSNSFPQIFRDRTDIQCLIPCAIDQDPYFRMTRDVAPRIGYPKPALLHSTFFPALQGAQTKMSASDPNSSIFLTDTAKQIKTKVNKHAFSGGRDTIEEHRQFGGNCDVDVSFMYLTFFLEDDDKLEQIRKDYTSGAMLTGELKKALIEVLQPLIAEHQARRKEVTDEIVKEFMTPRKLAAALEHHHHHH | soluble |
| QQIGLKTNLLYWGTTTPNAGLEFRMGKKWTLDVSGGYNPFTFSHHRKLKHWLVAPELRYWTCEAFSGHFFGLHGIGGEYNVNDIDIPIGRLKKLNNYRYE | not soluble |
| MGSDKIHHHHHHMVLRNSEGTHVHAADADQRPRAICLSTMTTNMQIVTLFRDAPDFAEPGNFEAHLVRLWSVIEALSGKDDRLGQWYLTGSTEEEALLYPAFEASGAPSTALLAVLKTKYQGKRNRAKVVGLWNGHNNPTDGATLKLSIDTGPLPSEVAIDPPKPRDAETGLAPLAAIQGIVSLLVATYAPAVVSVAPMDYFEKKVFDDKPGVGWMLYLPKVITQQQVPEARALIPVPAKGKQTGTIIVSVTDAPFSVDNPEHVAIANRIEIRLVDQDLLPAYVDI | not soluble |
| SNAMKLYIYDHCPFCVKARMIFGLKNIPVELNVLQNDDEATPTRMIGQKMVPILQKDDSRYLPESMDIVHYVDNLDGKPLLTGKRNPAIEEWLRKVNGYVNQLLLPRFAKSAFDEFSTPAARQYFIRKKEASSGSFDNHLAHSAGLIKKIGDDLRLLDKLIVQPNAVNGELSEDDIHLFPLLRNLTLVAGIHWPTKVADYRDNMAKQTQINLLSSMAI | soluble |
| MQGLELPQSYFNAAAKRQKYAMKPGLSALEKNAVIKAAYRQIFERDITKAYSQSISYLESQVRNGDISMKEFVRRLAKSPLYRKQFFEPFINSRALELAFRHILGRGPSSREEVQKYFSIVSSGGLPALVDALVDSQEYADYFGEETVPYLRGLEHHHHHH | not soluble |
| MCAVLRQPKCVKLRALHSACKFGVAARSCQELLRKGCVRFQLPMPGSRLCLYEDGTEVTDDCFPGLPNDAELLLLTAGETWHGYVSDITRFLSVFNEPHAGVIQAARQQLSDEQAPLRQKLLADLLHHVSQNITAETREQDPSWFEGLESRFRNKSGYLRYSCESRIRGYLREVSAYTSMVDEAAQEEYLRVLGSMCQKLKSVQYNGSYFDRGAEASSRLCTPEGWFSCQGPFDLESCLSKHSINPYGNRESRILFSTWNLDHIIEKKRTVVPTLAEAIQDGREVNWEYFYSLLFTAENLKLVHIACHKKTTHKLECDRSRIYRPQTGS | soluble |
| MRGSHHHHHHGSPPAAPITLWTGPGPSINGFINDTPVIRCFICLTRDSNLVTVNASFVGEGGYRIVSPTQSQFSLIMEFDQFGQLMSTGNINSTTTWGEKPWGNNTVQPRPSHTWKLCMPNREVYSTPAATISRCGLDSIAVDGAPSRSIDCMLIINKPKGVATYTLTFRFLNFNRLSGGTLFKTDVLTFTYVGENQ | soluble |
| MAEEQQNSDQSNGGNVIPTPEEVATFLHKTVEEGGWEKCWEEEITPWDQGRATPLIVHLVDTSSLPLGRALVPGCGGGHDVVAMASPERFVVGLDISESALAKANETYGSSPKAEYFSFVKEDVFTWRPTELFDLIFDYVFFCAIEPEMRPAWAKSMYELLKPDGELITLMYPITDHVGGPPYKVDVSTFEEVLVPIGFKAVSVEENPHAIPTRKGKEKLGRWKKINLEHHHHHH | soluble |
| MQELKVPSVGESIVEVEIGAWLKGEGESFAQDEPLVELITDKATLELPAPFAGTLKQILKRTGETARVGEAIALLEEGRAEAAPKAQAPAEAPKEPSPEPLAMPAAERLMQEKGVSPAEVQGTGLGGRILKEDVMRHLEERAPAKPQEAPPPPPPSRPAPPPSTPPQPPADKPWRVSEAVPMTPLRRRIAERLLMVRQTTAMLTTFNEADMSAVIALRKEFGEAFQKKYGVKLGFMSFFVKAVVQALKEIPELNAEIRDNHIVYHRYYDIGIAVGGGEGLVVPVIRDADRLSFAEIEQKIADFAERARTKKLKPEELMGGTFTITNGGIYGSLNSTPLLNPPQVGILGMHAIQERPVVRDGQVVIRPMMYLALSYDHRIVDGREAVTFLRRVKELIENPARLLLEV | soluble |
| MQEKAVVLDDQMIRRALTRISHEIVERNKGVDNCVLVGIKTRGIFIAQRLAERIGQIEGKEMEVGELDITLYRDDLTLQSKNKEPLVKGSDIPVDITKKKVILVDDVLYTGRTVRAAMDALMDLGRPSQIQLAVLVDRGHRELPIRADYVGKNIPTSSEERIEVDLQETDQQDRVSIYDK | soluble |
| MGSDKIHHHHHHMSDIIQFPNSSKKLYKDIKRAEQDQNYDLMYEYIVQYERQFELTEEIAMMKCRMLYETGSFLELREETIVLLKTGIQQYDALMIYYVKSLIGLGQYFEAVEVIHQIIDEVKDHKTRMALHPLKEFAKSKLIEDEKRLTQSLTDFDTLSMREQTHLILKLIDNGHFQFQETVLYILKSNTYSYNLISLMIEYLRFANCTQELTIEKYGMDVTFVPANLNGLEHTTLKEKVIPNVMETLNDGALHIAEEAHHIMNNHSIMIYPIDIETLFETNKWINAYECYFKNMLGLKCELQSIDAFNFIQQLDLNNNS | not soluble |
| MGSDKIHHHHHHDDTLTSGTITIAVDETFRPIIEEELQVFYALTPDATVHPIYCSEVEAMKLLLADSVRLAITTRQLTRQETAYLNDKKFFPVSVKMATDGLALIVNKQNTDSLITVDQFKEILTGKVTDWKQLNPASRLGELQLVFDNPNSSTVHYVLDSICGGMPLSKDLKAQKTNPEVISYVAKNPAALGVIGVNWIGNPADSTRLSFNDVIRIMAVSRADSATVGNSFKPYQAYLALNQYPLTRNVYILLNDPKSGLPSGLTSFLTDFRGQRIILKSGLVPATAAVRIVDVKEE | not soluble |
| MSTPRPSLTLTLLQAREAAMSFFRPSLNQHGLTEQQWRVIRILRQQGEMESYQLANQACILRPSMTGVLARLERDGIVRRWKAPKDQRRVYVNLTEKGQQCFVSMSGDMEKNYQRIQERFGEEKLAQLLELLNELKKIKP | soluble |
| MGSDKIHHHHHHMLEFVNVSKSFWTGTQRKIILDKVSFTVELGTSLGILAPNGTGKTTLINMMAGLEKPDEGEIYRGCKISFPLGFMGGVINRLSAMENCRYIARLYGLDPDYVESYCRWLCGLNEYFDQPLGTYSAGMKSRFSFALMLALDFDIYLIDEGMPSSTDVEFNRKAGIILQERLETTTIVIVSHQPRTLEKFANTAAVLMNGQLHMFETLEEAKQLYDYETQG | not soluble |
| MGSDKIHHHHHHVEKFDLENFPVSESAKNMIASVSDGFYDNSYVGKWLYEVMGQEYDTAREIAEDILNQLFPETATWGLMYHEIKWGLPVRENLPYEERRQLIYRKRDYRAPMTPYRMEGYLKTATGFDVRIADINDPGDYGFVAPHPNVFKAYFMGEGTLASKRARAMLNELKQSHTMFTMNDRTEIVSDNRNLEEMNLKKIIFHIAESFWYSDLLDGRKPLDGSSLLYPYMRYNLMLGFKYMLGGFTTPTDADLQKVKFRAEQKTENDVKAGAIRIASDIIFWNTHLLDGSWDLDGSHRLDVTRGYQLGVAIVAMVACAYNKVTDSMKVRSTYGLRSSSDARAAIRSEFEADFWNTVYLDGKLLLDGNAMLEHRGGNKRLEAAVTHHMGIEREDMDVEAQVITKTRNYWFLDGSNALDGKKNLNSIYRKEYIQ | not soluble |
| LQELSITNFAIIEHLDIAFEAGMTVLTGETGAGKSIIIDAVGLLAGGRGSAEFIRTGADKAVLQGMFILPADGVTAQLLDEAGIEHADNTVILQREITKSGRNTCRINGMLVNTTTLKQIGETIVDIHGQNEHQELMQPEKHLGLLDEFATA | not soluble |
